Patent publication US20180079808A1 (AbbVie / Abbott, published 2018)

Key:
rat rIL-13 = molecular target: T1, rat rIL-13 (rat, UniProt P42203 19-131, limits assumed); experiment: cell-based or functional assay
T1 sequence (looked up): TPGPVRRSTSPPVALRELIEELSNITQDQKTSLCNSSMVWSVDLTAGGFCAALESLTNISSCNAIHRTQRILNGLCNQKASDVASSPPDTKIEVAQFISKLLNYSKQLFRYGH

cynomolgus monkey rIL-13 [1] = molecular target: T2, cynomolgus monkey rIL-13 (cynomolgus monkey, UniProt Q0PW92 21-132); experiment: cell-based or functional assay
T2 sequence (Q0PW92 entry or part of it): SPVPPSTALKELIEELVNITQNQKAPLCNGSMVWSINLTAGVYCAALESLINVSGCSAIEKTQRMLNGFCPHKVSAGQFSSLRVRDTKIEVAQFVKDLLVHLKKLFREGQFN

human IL-13 wild type [2] = molecular target: T3, human IL-13 wild type (human, UniProt P35225 35-146, limits assumed); experiment: crystal structure of the complex
T3 construct: also called IL-13 wt; rh IL-13
T3 sequence (P35225 other isoform, or with tags, fused parts or gaps limits assumed): as the sequence (Q0PW92 entry or part of it) above, with S1G, K10R, V42M, N67S, R83H, V100L, Q110R counted along it

[3] = molecular target: T4, human IL-13 variant (R130Q) (human, UniProt P35225 35-146, limits assumed); experiment: column 'Affinity, KD (nM)', hIL-13v; method not given
T4 construct: also called variant IL-13
T4 sequence (P35225 35-146 limits assumed, stated change not applied): as the sequence (Q0PW92 entry or part of it) above, with S1G, K10R, V42M, N67S, R83H, V100L counted along it

human IL-13 wild type [4] = molecular target: T3, human IL-13 wild type; experiment: cell-based or functional assay
[5] = molecular target: T4, human IL-13 variant (R130Q); experiment: cell-based or functional assay
cynomolgus monkey rIL-13 [6] = molecular target: T2, cynomolgus monkey rIL-13; experiment: cell-based or functional assay; remark: listed apart in the source
human IL-13 wild type [7] = molecular target: T3, human IL-13 wild type; experiment: column 'Affinity, KD (nM)', hIL-13wt; method not given

Binder	IC50, in vitro neutralization (rat rIL-13) [nM]	fold lower in vitro potency compared to human rIL-13 (rat rIL-13) [fold]	fold lower in vitro potency compared to human rIL-13 (cynomolgus monkey rIL-13 [1]) [fold]	half maximal inhibitory concentration (IC50), in vitro neutralization (cynomolgus monkey rIL-13 [1]) [nM]	binding result (human IL-13 wild type [2])	Kd [3] [nM]	Potency, IC50 (neutralisation of hIL-13wt; assay not given) (human IL-13 wild type [4]) [nM]	Potency, IC50 (neutralisation of hIL-13v; assay not given) [5] [nM]	Potency, IC50 (neutralisation of Cyno IL-13; assay not given) (cynomolgus monkey rIL-13 [6]) [nM]	Kd (human IL-13 wild type [7]) [nM]
13C5.5, humanized recombinant immunoglobulin IgG1 (IgG1, κ) monoclonal antibody (antibody, V domains shown) VH: EVTLRESGPGLVKPTQTLTLTCTLYGFSLSTSDMGVDWIRQPPGKGLEWLAHIWWDDVKRYNPALKSRLTISKDTSKNQVVLKLTSVDPVDTATYYCARTVSSGYIYYAMDYWGQGTLVTVSS VL: DIQMTQSPSSLSASVGDRVTISCRASQDIRNYLNWYQQKPGKAPKLLIFYTSKLHSGVPSRFSGSGSGTDYTLTISSLQPEDIATYYCQQGNTLPLTFGGGTKVEIK	12.4	155	51	4.1	–	–	–	–	–	–
Fab portion of 13C5.5 antibody (Fab, V domains shown, Fab used for the crystal structure with human IL-13; also called 13C5.5 Fab) VH: EVTLRESGPGLVKPTQTLTLTCTLYGFSLSTSDMGVDWIRQPPGKGLEWLAHIWWDDVKRYNPALKSRLTISKDTSKNQVVLKLTSVDPVDTATYYCARTVSSGYIYYAMDYWGQGTLVTVSS VL: DIQMTQSPSSLSASVGDRVTISCRASQDIRNYLNWYQQKPGKAPKLLIFYTSKLHSGVPSRFSGSGSGTDYTLTISSLQPEDIATYYCQQGNTLPLTFGGGTKVEIK	–	–	–	–	binds	–	–	–	–	–
9C11 (antibody, V domains shown) VH: QVRLQQPGAELVRPGASVKLSCKASGYTFTSSWIHWVNQRPGQGLEWIGMIHPSDSETRLNQKFKDKATLTVDKSSSTAYMQLSSPTSEDSAVYYCASTATDFDYWGQGTTLTVSS VL: DVVLTQTPLSLPVNIGDQASISCRSTQTLLNSDGFTYLDWYLQKPGQSPQLLIYLVSNRFSGVPDRFSGSGSGTDFTLKISRVEAEDLGVYYCFQNNYLPLTFGAGTKLELKR	–	–	–	–	–	0.092	0.184	0.17	0.64	0.112
5G1 (antibody, V domains shown) VH: QVQLQQSGAELARPGTSVKLSCKASGYTFTTYGVSWVKQRTGQGLEWIGEIYPGNYNTYYNEKFRGKATLTADKSSSTAYMQLSSLTSEDSAVYFCSRWRTSYFSDYGYFDYWGQGTTLTVSS VL: DVVMTQTPLSLPVSLGDQASISCRSSQSLVHSHGNTYLHWYLQKPGQSPKLLIYTVSNRFSGVPDRFSGSGSGTDFTLKISRVEAEDLGVYFCSQSTHVPYTFGGGTKLEIKR	–	–	–	–	–	0.13	0.076	0.048	0.612	0.008
